These results are taken from PMC2674207.

In the test the target is importin-α (PBMCs) (human (endogenous in PBMCs)) (UniProt P52292). Kind of test: co-IP; PBMCs from seven steroid-naive asthma patients after inhaled FP (100 or 500 µg via a spacer) or placebo in vivo, blood taken at 1 and 2 h; densitometry of blots.

“phospho-GATA-3 (PBMCs) (from UniProt P23771 1-443) (natural protein)” registered a GATA-3–importin-α association (densitometry, median), 2 h after inhaled FP 500 µg of 879 and a GATA-3–importin-α association (densitometry, median), reference before the decrease of 13500.
